These results are taken from IntAct's records for PubMed 28202711.

Assay [1] addresses 1433g_human YWHAG (UniProt P61981).
For assay [2] the target is unchanged. This is another data set of the same source.

Sequence of UniProt P61981 (P61981 whole entry): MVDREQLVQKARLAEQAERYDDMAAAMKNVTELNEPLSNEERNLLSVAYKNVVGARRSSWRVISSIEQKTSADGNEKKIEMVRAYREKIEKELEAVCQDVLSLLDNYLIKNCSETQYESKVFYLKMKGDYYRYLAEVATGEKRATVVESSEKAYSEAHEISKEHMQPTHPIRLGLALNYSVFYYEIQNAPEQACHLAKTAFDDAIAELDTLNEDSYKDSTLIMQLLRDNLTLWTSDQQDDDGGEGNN

On to “Leucine-rich repeat serine/threonine-protein kinase 2 (Homo sapiens), Q5S007 R1441C”, for which the “effect of a mutation on the interaction” value in assay [1] was “decreasing interaction strength”.
On the same count and under the same terms, then “Leucine-rich repeat serine/threonine-protein kinase 2 (Homo sapiens), Q5S007 R1441H”, with “decreasing interaction strength”.
On to “Leucine-rich repeat serine/threonine-protein kinase 2 (Homo sapiens), Q5S007 R1441G”, for which the results for the “effect of a mutation on the interaction” value in assay [2] and in assay [1] were “with no effect” and “decreasing interaction strength”, respectively.
